Data published in publication PMC7846606.

Biological target: PRC2:EZH1 (EZH1, EED, SUZ12, RBAP48, AEBP2 and JARID2) (UniProt Q92800)
Experiment: SEC-MALS; TSKgel G4000SWxl, 20 mM Tris-HCl pH 7.5, 300 mM NaCl, 1 mM DTT, 0.5 ml/min; complexes at 1.25 mg/ml, 30 μl injected

stoichiometry N: 2
Substance: PRC2:EZH1 (EZH1, EED, SUZ12, RBAP48, AEBP2 and JARID2) (from UniProt Q92800 1-747; Q15022 1-739; O75530 1-441; Q09028 1-425; Q6ZN18 209-503; Q92833 1-1246) (complex)
